Key:
VASP/ActA interaction = VASP/ActA interaction (Homo sapiens, UniProt P50552); details: peptides with mutations in the FPPPP motif; cited from earlier work
VASP/zyxin interaction = molecular target: T1, VASP/zyxin interaction (Homo sapiens, UniProt P50552); experiment: VASP-zyxin solid-phase (DELFIA) assay, competition with peptides; assay type: binding; details: competing zyxin peptides, FIG. 2
T1 construct: made in house; host or cells: VASP: insect cells (baculovirus); GST-zyxin(1-142): E. coli, given only for the homogeneous assay
Description: In the solid-phase assay, a binding partner (VASP or zyxin) was immobilized on the surface of a microtiter plate (MTP) (=coating). The unsaturated binding sites on the surface of the plastic were blocked, and the surface was then incubated with the respective other binding partners. After the incubation, excess unattached protein was removed in a washing step. Using suitable antibodies, it was now possible to detect and quantify the specifically bound protein. Here, it was possible to improve the signal-noise (S/N) ratio considerably by using lanthanide chelates as fluorescent labels for the antibodies and the measurement of the time-resolved fluorescence.
For the solid-phase assay, the best coating and incubation conditions were characterized. […] For detecting VASP specifically bound to the immobilized zyxin, it was possible to use monoclonal antibodies against VASP which can be detected using lanthanide-labeled antibodies against mouse IgGs (Wallac: DELFIA anti-mouse-Eu(N1)).
The current assay protocol comprised 5 incubation steps and 3 washing steps: • 1. Incubation of the empty MTPs with GST-zyxin(1-142) (coating); • 2. Blocking with BSA (bovine serum albumin); • 3. Washing with PBS (wash buffer); • 4. Incubation with VASP (ligand) (with and without test substances); • 5. Washing with PBS; • 6. Incubation with detection mix: α-VASP (monoclonal anti-VASP antibody)+α-mouse-Eu (europium-labeled anti-mouse antibodies from Wallac); • 7. Washing with DELFIA wash solution; and • 8. Release of the bound lanthanide complex and fluorimetric measurement.
The optimum conditions for coating (GST-zyxin(1-142)) and ligand incubation (VASP) were determined by titrating the reagents. […] The volume per well used depended on the selected MTP format (50 μl or 100 μl for 96-well plates, 20 μl for 384-well plates).
Thus far, there are no known non-peptidergic inhibitors of the VASP/zyxin interaction To simulate the action of potential inhibitors, inhibition experiments were carried out using competing peptides which contained the VASP binding motif of zyxin (FPPPP (SEQ. ID. NO. 1)). […]

T1 sequence (P50552 whole entry): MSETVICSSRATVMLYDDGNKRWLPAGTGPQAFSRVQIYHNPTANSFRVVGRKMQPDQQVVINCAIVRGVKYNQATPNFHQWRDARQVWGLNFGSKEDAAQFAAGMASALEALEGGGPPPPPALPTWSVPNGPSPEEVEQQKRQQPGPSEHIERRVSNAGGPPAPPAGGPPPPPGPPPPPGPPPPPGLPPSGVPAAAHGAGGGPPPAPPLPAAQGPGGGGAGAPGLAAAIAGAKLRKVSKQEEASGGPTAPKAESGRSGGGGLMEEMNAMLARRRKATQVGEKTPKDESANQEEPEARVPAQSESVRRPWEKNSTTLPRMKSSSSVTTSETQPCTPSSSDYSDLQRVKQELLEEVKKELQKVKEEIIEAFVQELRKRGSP
VASP/ActA interaction, sequence (P50552 whole entry, species assumed): as the sequence (P50552 whole entry) above

| Substance | inhibition of the VASP/ActA interaction (relative to wild type sequence FPPPP) (VASP/ActA interaction) | apparent inhibition constants of the peptides (rank order of inhibition) (VASP/zyxin interaction) |
| --- | --- | --- |
| APPPP: competing zyxin peptide containing the mutated VASP binding motif APPPP | considerably worse inhibition | WPPPP (SEQ. ID. NO. 2)>FPPPP (SEQ. ID. NO. 1)>APPPP (SEQ. ID. NO. 3) |
| FPPPP: competing peptide containing the wild type VASP binding motif of zyxin, FPPPP | WPPPP (SEQ. ID. NO. 2)>FPPPP (SEQ. ID. NO. 1)>APPPP (SEQ. ID. NO. 3) | WPPPP (SEQ. ID. NO. 2)>FPPPP (SEQ. ID. NO. 1)>APPPP (SEQ. ID. NO. 3) |
| WPPPP: competing zyxin peptide containing the mutated VASP binding motif WPPPP | even better inhibition | WPPPP (SEQ. ID. NO. 2)>FPPPP (SEQ. ID. NO. 1)>APPPP (SEQ. ID. NO. 3) |

Reference: patent publication US7563582B2, “Process for screening chemical compounds for modulating the interaction of an EVH1 domain and a process for detecting said interaction” (sanofi-aventis Deutschland GmbH, priority 2000, dated 2009)
